Test results reported in paper PMC9500498 (Circulation research, 2021).
Ends that are not written are not given here. * marks the point of attachment. Biotin = O=C1N[C@H]2[C@H](CS[C@H]2CCCCC(=O)*)N1; Ahx = NCCCCCC(=O)O

Molecular target: calmodulin (CaM), recombinant (UniProt P0DP23 1-149)
Assay: SPR

Kd: 4.7 ± 0.7 µM | koff: 0.00053 s⁻¹ | kon: 130 M⁻¹ s⁻¹
Binder: {Biotin-Ahx}-KKRKKAKKDYQPNYFLSIPI [biotin-ahx-AKAP18δ-N (79–98)]
